In US8088892B2, “Inhibitors of proteins from the Rho-GEF family” (Centre National de la Recherche Scientifique (C.N.R.S.), priority 2002, dated 2012):

B1: TRIAPα 9-42: variant of TRIAPα containing TRIPα 9-42 (SEQ ID NO: 6) inserted into the thioredoxin (protein)
chain: MSDKIIHLTDDSFDTDVLKADGAILVDFWAEWCGPICGYNLATLVMLGPSERVFCPLCEPCSSDIYELMGPCKMIAPILDEIADEYQGKLTVAKLNIDQNPGTAPKYGIRGIPTLLLFKNGEVASATKVGALSKGQLKEFLDANLA
B2: TRIAPα 1-33: variant of TRIAPα containing TRIPα 1-33 (SEQ ID NO: 18) inserted into the thioredoxin (protein)
chain: MSDKIIHLTDDSFDTDVLKADGAILVDFWAEWCGPAREGADGAICGYNLATLVMLGPSERVFCPLCEPGPCKMIAPILDEIADEYQGKLTVAKLNIDQNPGTAPKYGIRGIPTLLLFKNGEVASATKVGALSKGQLKEFLDANLA
B3: TRIAPα 9-40: variant of TRIAPα containing TRIPα 9-40 (SEQ ID NO: 8) inserted into the thioredoxin (protein)
chain: MSDKIIHLTDDSFDTDVLKADGAILVDFWAEWCGPICGYNLATLVMLGPSERVFCPLCEPCSSDIYEGPCKMIAPILDEIADEYQGKLTVAKLNIDQNPGTAPKYGIRGIPTLLLFKNGEVASATKVGALSKGQLKEFLDANLA
B4: TRIAPα 9-38: variant of TRIAPα containing TRIPα 9-38 (SEQ ID NO: 10) inserted into the thioredoxin (protein)
chain: MSDKIIHLTDDSFDTDVLKADGAILVDFWAEWCGPICGYNLATLVMLGPSERVFCPLCEPCSSDIGPCKMIAPILDEIADEYQGKLTVAKLNIDQNPGTAPKYGIRGIPTLLLFKNGEVASATKVGALSKGQLKEFLDANLA
B5: TRIAPα 9-36: variant of TRIAPα containing TRIPα 9-36 (SEQ ID NO: 12) inserted into the thioredoxin (protein)
chain: MSDKIIHLTDDSFDTDVLKADGAILVDFWAEWCGPICGYNLATLVMLGPSERVFCPLCEPCSSGPCKMIAPILDEIADEYQGKLTVAKLNIDQNPGTAPKYGIRGIPTLLLFKNGEVASATKVGALSKGQLKEFLDANLA
B6: TRIAPα 9-34: variant of TRIAPα containing TRIPα 9-34 (SEQ ID NO: 14) inserted into the thioredoxin (protein)
chain: MSDKIIHLTDDSFDTDVLKADGAILVDFWAEWCGPICGYNLATLVMLGPSERVFCPLCEPCGPCKMIAPILDEIADEYQGKLTVAKLNIDQNPGTAPKYGIRGIPTLLLFKNGEVASATKVGALSKGQLKEFLDANLA
B7: TRIAPα 9-33: variant of TRIAPα containing TRIPα 9-33 (SEQ ID NO: 16) inserted into the thioredoxin (protein)
chain: MSDKIIHLTDDSFDTDVLKADGAILVDFWAEWCGPICGYNLATLVMLGPSERVFCPLCEPGPCKMIAPILDEIADEYQGKLTVAKLNIDQNPGTAPKYGIRGIPTLLLFKNGEVASATKVGALSKGQLKEFLDANLA

Target: TrioGEFD2 (Homo sapiens, UniProt O75962)
Experiment: In vitro guanine nucleotide exchange (GEF) assay on RhoA
Format: biochemical
Design: using recombinant GST-TrioGEFD2 (a.a. 1848-2298), TrioDH2 (a.a. 1848-2096); made in house
Conditions: 20-fold molar excess (8 μM) inhibitor, 0.4 μM GST-GEFD2, 0.3 μM [3H]GDP-RhoA, 15 min
Procedure: For that purpose, aptamers, TrioGEFD2 and RhoA are expressed as GST-fusion proteins. RhoA is loaded with ^3H-GDP, and the release of GDP is followed after addition of GEFD2 in presence or in absence of the selected aptamers (as described in Debant et al., 1996).
A 20-fold molar excess (8 μM) of GST-aptamers TRIAPα, TRIAPβ (another TrioGEFD2 binding aptamer), TRIAPγ (another TrioGEFD2 binding aptamer) or the empty thioredoxine (Trx) were pre-incubated with 0.4 μM GST-GEFD2 (left side of FIG. 2A) or 0.4 μM GST-DH2 (right side of FIG. 2A), as indicated, before adding 0.3 μM of [^3H]GDP loaded GST-RhoA. The exchange activity was monitored by the decrease of [^3H]GDP bound-RhoA after 15 min (see Materials and Methods). The amount of [^3H]GDP bound-RhoA incubated without GEF (first bar on the left) was defined as 100% The values and errors bars were calculated from at least three independent experiments.
0.4 μM GST-GEFD2 were incubated with increasing amounts of GST-TRIAPα (grey bars) or GST (black bars), and the exchange assay was then performed on 0.3 μM RhoA, as described in A.
An in vitro guanine nucleotide exchange (GEF) assay was used to test whether the TrioGEFD2-binding aptamers could inhibit the catalytic activity of TrioGEFD2 towards RhoA. For this purpose, the aptamers TRIAPα, TRIAPβ and TRIAPγ (including the Trx gene) were excised from pEG202 as EcoRI/NotI fragments and cloned into pGEX4T1 EcoRI/NotI. The aptamers were then expressed and purified from bacteria as GST fusion proteins, using standard procedures (Smith and Johnson, 1988). GTPase-GST fusion proteins were prepared, loaded with [^3H]GDP and the guanine nucleotide release assays were performed as described (Debant et al., 1996), using recombinant GST-TrioGEFD2 (a.a. 1848-2298), TrioDH2 (a.a. 1848-2096). For each point, 0.3 μM GTPase was mixed with or without 0.4 μM GEF in presence of non-labeled GTP, and the reaction mix was filtered after 0 min and 15 mm reaction at 25° C. The catalytic activity of TrioGEFD2 was thus measured by the decrease of the GTPase-associated radioactivity. The results are expressed as the ratio “exchange after 15 min over exchange after 0 min” (% bound [^3H]GDP-RhoA). To measure the effect of the aptamers on the exchange activity, a 20-fold molar excess of GST-TRIAPs was pre-incubated with GEFD2 (or GEFD1) for 30 min on ice before the exchange assay was carried out. For each experiment, data were obtained in triplicate.

| Molecule | Inhibition of TrioGEFD2 exchange activity on RhoA in vitro |
| --- | --- |
| B1 | did not alter its inhibitory effect |
| B2 | displayed fill inhibitory activity |
| B3 | displayed fill inhibitory activity |
| B4 | displayed fill inhibitory activity |
| B5 | displayed fill inhibitory activity |
| B6 | displayed fill inhibitory activity |
| B7 | had a reduced activity |
